From patent publication US8492329B2, “Bioactive peptides and methods of using same” (Compugen Ltd., priority 2007, dated 2013)

What was measured:
Format in all cases: cell-based
GPR135 (RXFP3) = target: T1, GPR135 (RXFP3) (Homo sapiens, UniProt Q9NSD7); experiment: cAMP HTRF assay on Euroscreen RXFP3 recombinant cells; settings: increasing concentrations, 30 min; FIG. 5
T1 construct: host or cells: CHO-K1 recombinant cell line (Euroscreen)
T1 sequence (Q9NSD7 1-469): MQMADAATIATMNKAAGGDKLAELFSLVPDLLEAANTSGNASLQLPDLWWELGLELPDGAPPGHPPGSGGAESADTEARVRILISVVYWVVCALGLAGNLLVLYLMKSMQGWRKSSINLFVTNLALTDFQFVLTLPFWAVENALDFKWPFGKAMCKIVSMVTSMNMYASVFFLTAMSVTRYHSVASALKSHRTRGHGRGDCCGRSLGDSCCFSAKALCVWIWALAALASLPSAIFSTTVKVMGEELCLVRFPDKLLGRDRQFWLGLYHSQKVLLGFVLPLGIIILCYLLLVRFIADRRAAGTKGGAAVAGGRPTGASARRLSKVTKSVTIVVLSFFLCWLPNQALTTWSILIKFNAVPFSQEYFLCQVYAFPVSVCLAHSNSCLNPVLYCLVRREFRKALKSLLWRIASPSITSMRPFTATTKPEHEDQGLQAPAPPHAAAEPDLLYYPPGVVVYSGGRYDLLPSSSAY
Experimental: The ability of P59C13V (SEQ ID NO: 6) and H3 Relaxin to activate CHO-K1 cells transfected by GPR135 (RXFP3), which is a non-LGR, Relaxin related receptor, was tested. The assay was performed by Euroscreen. For cAMP concentration analysis, Euroscreen cat. ES-656-A-cells (RXFP3, Euroscreen cat. ES-656-A) grown to mid-log phase in culture media without antibiotics were detached with PBS-EDTA, centrifuged and resuspended in assay buffer at a concentration of […]. The test was performed in 96 well plates. For agonist testing, 12 μl of cells (5×10^3 cells/well) were mixed with 12 μl of agonist Either H3-Relaxin or P59C13V (P59) (SEQ ID NO: 6) at increasing concentrations. The plates were then incubated for 30 min at room temperature. After addition of the lysis buffer, cAMP concentrations were estimated, according to the manufacturer specification, with the HTRF kit from Cis-Bio International (cat no 62AM2PEB).
.Relaxin 3 Fit (Eeuroscreen) was used as a positive control. RXFP3 (GPCR135) transfected cells were challenged with increasing concentrations of Relaxin 3 (H3 Relaxin—as a positive control—[…]) or P59C13V (P59) (SEQ ID NO: 6) (1 nM-3 uM).

LGR8 (RXFP2) [1] = target: T2, LGR8 (RXFP2) (Homo sapiens, UniProt Q8WXD0); experiment: pCRE-β-gal reporter assay in Forskolin-treated CHO-K1 cells transiently transfected with LGR8; set-up: expressed in transfected cells; host or cells: CHO-K1 (transient); settings: 5 uM Forskolin, FIG. 8A-B
Experimental: The ability of P74C13V (P74) (SEQ ID NO: 10) and P59C13V (P59) and P59C13V-Amide (P59-Amide) (SEQ ID NO: 6 and 5 respectively) to activate LGR7 (RXFP1) and LGR8 (RXFP2) was further tested by testing the ability of these peptides to influence cAMP activity induced by 5 μM Forskolin in CHO-K1 cells transiently transfected with LGR7/pCRE-β-gal or LGR8/pCRE-β-gal as compared to H2 relaxin and INSL3 respectively.
LGR8 transfected CHO-K1 cells were treated with 5 uM of Forskolin to stimulate cAMP. The cells were then challenged with increasing doses of INSL3 (as positive control), P74C13V (P74) (SEQ ID NO: 10), P59C13V with (P59-Amide) and without (P59) amide (SEQ ID NO: 5 and 6, respectively) and P59S-Amide (P59-S) (SEQ ID NO: 1). […] The results are presented as a percentage of Forskolin activity at various concentrations of the peptide (logarithmic scale). Each point represents three unrelated repeats for each experiment.

LGR8 (RXFP2) [2] = target: T2, LGR8 (RXFP2); experiment: cAMP accumulation (Hit Hunter cAMP kit) in CHO-K1 cells transiently transfected with LGR8; set-up: expressed in transfected cells; host or cells: CHO-K1 (transient); settings: 20 uM Forskolin, FIG. 2
Experimental: The ability of Peptides to affect cAMP concentration was examined in CHO-K1 cells transiently transfected with LGR7 (RXFP1) or LGR8 (RXFP2). The experiment measured cAMP concentration in response to the addition of the peptides.
LGR7 (RXFP1) or LGR8 (RXFP2) were transiently transfected into CHO-K1 cells as follows: Cells (12 million) were plated into T75 flasks on the day preceding transfection. Cells were transfected with a GPCR DNA and Gα16 using a lipid technique according to the manufacturer's recommendation. Cells were transfected for 5 hours, then re-plated into 96-well dishes (60,000 cells per well) and grown overnight. Transfected cells were plated into 24 wells of a 96-well plate. Cells were pre-treated with 0.5 mM IBMX (stimulation buffer) for 10 min at 37° C., then stimulated with either a positive control (Relaxin 2) or a candidate peptide (for Gs functional examination), followed by stimulation or a preincubation with 10 μM forskolin (for Gi functional examination). Following a 20 minutes stimulation by incubation with 1 μM of either positive control or the tested peptides, either with or without forskolin, intracellular cAMP was assayed using the Hit Hunter cAMP kit (DiscoveRx Corporation) according to the manufacturer's recommended protocol. Data was converted to nmol of cAMP by running a standard cAMP curve.
Relaxin was used as a positive control. cAMP level was elevated by pre-treatment with forskolin.
The transfected CHO-K1 cells were treated with 10 uM of Forskolin (Applied cell sciences (ACS)) for 10 minutes and then challenged with 1 uM of H2 Relaxin (ACS) (as a positive control), 1 uM of Peptide P59C13V (P59) (SEQ ID NO: 6), and Peptide P74C13V (P74) (SEQ ID NO: 10).
A dose response effect of P59C13V (P59) and P74C13V (P74) on CHO-K1 cells transiently transfected with LGR8 (RXFP2) was further examined (Method as above). CHO-K1 cells transiently transfected with LGR8 (RXFP2) were treated with 20 uM of Forskolin for 10 minutes and then challenged with either INSL3 (as a positive control), P59C13V (SEQ ID NO: 6) or P74C13V (P74) (SEQ ID NO: 10) at increasing concentrations from 1 nM to 10 uM.

T2 sequence (Q8WXD0 whole entry): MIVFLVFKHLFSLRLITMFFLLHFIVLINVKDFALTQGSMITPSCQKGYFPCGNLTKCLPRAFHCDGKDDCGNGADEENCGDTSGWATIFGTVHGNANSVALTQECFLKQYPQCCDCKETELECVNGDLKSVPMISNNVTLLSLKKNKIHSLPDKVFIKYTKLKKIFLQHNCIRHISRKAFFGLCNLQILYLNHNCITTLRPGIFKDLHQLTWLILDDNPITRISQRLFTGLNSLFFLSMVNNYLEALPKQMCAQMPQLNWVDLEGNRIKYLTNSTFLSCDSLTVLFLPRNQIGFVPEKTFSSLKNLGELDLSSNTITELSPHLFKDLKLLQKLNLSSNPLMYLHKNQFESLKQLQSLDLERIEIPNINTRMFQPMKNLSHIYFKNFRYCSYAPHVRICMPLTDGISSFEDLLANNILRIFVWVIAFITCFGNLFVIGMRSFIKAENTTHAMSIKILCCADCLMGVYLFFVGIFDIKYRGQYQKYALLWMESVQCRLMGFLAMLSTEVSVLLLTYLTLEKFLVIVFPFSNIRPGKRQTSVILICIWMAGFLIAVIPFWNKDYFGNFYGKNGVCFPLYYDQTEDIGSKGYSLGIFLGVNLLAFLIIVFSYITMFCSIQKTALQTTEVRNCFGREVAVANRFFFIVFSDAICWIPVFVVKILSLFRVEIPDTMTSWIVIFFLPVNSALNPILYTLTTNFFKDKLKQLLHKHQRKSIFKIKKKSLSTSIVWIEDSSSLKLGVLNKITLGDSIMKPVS

Substance | cAMP activation (Gs) of RXFP3 (GPR135 (RXFP3)) | CRE activation pattern relative to Forskolin (LGR8 (RXFP2) [1]) | change in cAMP, dose response, higher concentrations (LGR8 (RXFP2) [2]; concentrations higher than 100 nM (up to 10 uM)) | change in cAMP, dose response, lower concentrations (LGR8 (RXFP2) [2]; concentrations lower than 100 nM)
H3 Relaxin: Relaxin 3 (Euroscreen), ligand of RXFP3, positive control [reference compound] | strong cAMP stimulation | – | – | –
INSL3: Leydig insulin-like 3 peptide, high affinity ligand of LGR8, positive control (chain 1 AAATNPARYCCLSGCTQQDLLTLCPY; chain 2 PTPEMREKLCGHHFVRALVRVCGGPRWSTEA) [reference compound] | – | increased activation at higher concentrations | sharp decrease (Gi effect) | slight dose dependent increase
